Results published in the DeepSol protein solubility set.

Experiment: soluble on expression in E. coli; label from the status in PepcDB or PDB records

Row | Sequence | soluble on expression in E. coli
1 | MRELGLEIPVEEVYNANSISLKDAVVHFGGGCTGEVISSEGLVLTNHHCGYGAIQQHSNVEHDYLTEGFWAMNRDAELPTPGLTVTFIDRILDVTSYVNDQLKKDEDPNGTNYLSPSYLSKVAERFAKDENIEVTPATKLELKAFYGGNKYYMFVKTVYSDIRMVGAPPSSIGKFGADTDNWMWPRHTGDFSLFRIYADKNGKPAAYSRDNVPLQVKKHLKISIAGVQEGDFTFVMGFPGRNWRYMISDEVEERMQTTNFMRQHVRGARQKVLMEQMLKDPAVRIHYASKYASSANYWKNAIGMNEGLVRLKVLDTKRKQQEELLARGREKGDDSYQKAFDEIRSIVAHRRDALYHQQALNEALVTALDFMRLPSTTEMVTALKSKNKEQIKTATENLKQAGEKYFASVPFPEVERMVAKTMLQTYASYIPEEQRINIFEIINSRFKGNIDSFVDACFEYSIFGNPKNFEKFIKKPSLYKIGHDWMVLFKYSITDGILKTAIAMKEANQNYDAAHKVWVKGMMDMRQEKGMPIYPDANSTLRLTYGQVLSYEPADGVVYDAHTTLKGVMEKEDPGNWEFVVPQKLKELYKARDYGRYGKDGEMPVCFIVNTDNTGGNSGSPVFNSKGQLVGTAFDRNYEGLTGDIAFRPSSQRAACVDIRYTLFIIDKYAGASHIIDELSIE | not soluble
2 | GSHSLRYFYTAVSRPGLGEPRFIAVGYVDDTEFVRFDSDAENPRMEPRARWMEREGPEYWEQQTRIAKEWEQIYRVDLRTLRGYYNQSEGGSHTIQEMYGCDVGSDGSLLRGYRQDAYDGRDYIALNEDLKTWTAADFAAQITRNKWERARYAERLRAYLEGTCVEWLSRYLELGKETLLRSDPPEAHVTLHPRPEGDVTLRCWALGFYPADITLTWQLNGEDLTQDMELVETRPAGDGTFQKWASVVVPLGKEQNYTCRVEHEGLPKPLSQRWEPLLEHHHHHH | soluble
3 | MTSSATSPTNGVDKNKNEEMVATPANCPYQLFNQEVVWNGKWIQTRQVGFKTHTGQVGVWQSVHRNTKPVEASADGVSIIARVRKQGKLYIVLVKQYRIPCGKLCLELPAGLIDAGETAQQAAIRELKEETGYVSGKVVMESKLCFLDPGLTDDSQCLVVVDVDGDAPENQNPVQVLDSTESIEVLLVEQSALMAYVTNLDSSSIVVESTLLAYAMGIQFATI | not soluble
4 | MTEMTKPFLIVIVGPTASGKTELSIEVAKKFNGEIISGDSMQVYQGMDIGTAKVTTEEMEGIPHYMIDILPPDASFSAYEFKKRAEKYIKDITRRGKVPIIAGGTGLYIQSLLYNYAFEDESISEDKMKQVKLKLKELEHLNNNKLHEYLASFDKESAKDIHPNNRKRVLRAIEYYLKTKKLLSSRKKVQQFTENYDTLLIGIEMSRETLYLRINKRVDIMLGHGLFNEVQHLVEQGFEASQSMQAIGYKELVPVIKGNISMENAVEKLKQHSRQYAKRQLTWFKNKMNVHWLNKERMSLQMMLDEITTQINKRSSNHDCKRKHPRPSTRELLEHHHHHH | soluble
5 | IMIRTDRYGVITYANEKFCEILKYDKEELIGQRFDILNSHYHAQRFFDIMWETISTGNVWNDEIRNKAKDGSYVWLDTTIIPVLNDEHVPNQYIAIYTDLS | not soluble
6 | LSPLEARVIGCLIEKEVTTPDHYPLTLNSLTTACNQKSNREPVLNLSEAEVQDTVEGLIARRLVSDESSFNSRTSKYQHRFCNTEFGDLKLNQQELGLICCLLLRGAQTPGELRTRTNRLCTFTDVKETEAVLERLANRDSGALVVKLPREPGKRESRYHHLFCGEVDMAAFATSSDNE | not soluble
7 | MDNMKRNMPYLPSFKLTDFDIKTLVQPILCPRSQEIQYYETLSKISTFAQSNINNDVFFSIIDNTFIQTLALQQIRFSLEKYPHQLHSFNIKLSCLADEDFVRELLSFHGAKFALEISELDCYTESKEIRENLSVLQANNIEIWLDDYHRNNKLANMSLGNILWDRIKIDKSFLKHADQESIQALEYFLAPFCLHGLIFEGAEYIEHHKMLKTSQSLTQGYYYFRPSPINSLDSKPRVAESIKLSYAG | not soluble
8 | MNTLSDSASPLYEKVKDFVLGNIGSGKWARNSRLPSENELVSALGVSRMTVHRALRELTSEGHLRRIQGVGTFVAPPRPRSTLIEISNIITEIKTRGSRHRAEVVVLERIARPEPELLLAFEFETVKPVDHSVVIHFENDLPVQLEERYVNPNLVSGYIDQDFAAVATYDYLQNATPLTEVEHLISALPANAEQARLLNVRPGDCCLILHRKTWTGPVVATVNTFTYVGSRYSLGSRYLHGGK | not soluble
9 | MKFGLFFLNFMNSKRSSDQVIEEMLDTAHYVDQLKFDTLAVYENHFSNNGVVGAPLTVAGFLLGMTKNAKVASLNHVITTHHPVRVAEEACLLDQMSEGRFAFGFSDCEKSADMRFFNRPTDSQFQLFSECHKIINDAFTTGYCHPNNDFYSFPKISVNPHAFTEGGPAQFVNATSKEVVEWAAKLGLPLVFRWDDSNAQRKEYAGLYHEVAQAHGVDVSQVRHKLTLLVNQNVDGEAARAEARVYLEEFVRESYSNTDFEQKMGELLSENAIGTYEESTQAARVAIECCGAADLLMSFESMEDKAQQRAVIDVVNANIVKYHSLEHHHHHH | soluble
10 | MSLTDPVKIYQRKWIVGGWMKRSEIRKALEAWFDVERYEAIETLTLQQFYVEVERRILAYRMLLSRNTIPTFNRLMLDDYRNKILSGEIFFSGDTATIGHELARTYAVNPTTRSHAQFYAKTLSLTEATPELSGLSQSEFLSEYLKETSLNNLSRITVDIHLEEASTEEIIEHLKVLIPQWKRQLKMTSPAPREYRFGKSTFRKIIDYRLIPMMDLIFWGEDNGIKIPLSLISSLLHEDSDNDRDEGMLKATDYPLAMAFLTDASYLKSLEDYMMENNHLKDSPVEKHVEDDRNEGHHHHHH | not soluble
11 | MGSDKIHHHHHHMILDVDYVISAANITMQFGAKPLFENISVKFGNGNRYGLIGANGCGKSTFMRILSGEQEPSAGNVSLEPNIRIGKLRQDQFAYEDYSVVDAVIMGHEELWAVKEERDRIYSSGEMSEEDGMRVADLETEFAEMDGYTAESRAGELLLGLGIPVEQHFGLMSALAPGVKIRVLLAQVLFSEPDIMLLDEPTNNLDINTIRWLEGVLAEKQSTMIIISHDRHFLNTVCTHMADIDYGELRVYPGNYDEYMFAATQAREQLMSDNAKKKEKIAELQSFVSRFSANASKAKQATSRQKQMEKIQLDEVKASSRVNPYIRFTQEKKLYRLALETENVRKSFEDEAVLKGLSTSIEVGEKVAIIGANGIGKTTLLKCLMGEYTPDSGSIKWSENAAIGYYAQDHAHWFKQDMTVYEWMYQWKKPGDDEQAIRGVLGRMLFSSDDIQKPVSILSGGEKGRMIFGKLILQRPNILVMDEPTNHLDMESIESLNLALEQFEGTLLFVSHDREFVSTLATRIIEITDKGLRDFAGSYDEYLAQLAAA | not soluble
12 | MGHHHHHHSHRLSPRDEYKPLDLSDSTLSYTETEATNSLITAPGEFSDASMSPDATKPSHWCSVAYWEHRTRVGRLYAVYDQAVSIFYDLPQGSGFCLGQLNLEQRSESVRRTRSKIGFGILLSKEPDGVWAYNRGEHPIFVNSPTLDAPGGRALVVRKVPPGYSIKVFDFERSGLQHAPEPDAADGPYDPNSVRISFAKGWGPCYSRQFITSCPCWLEILLNNPR | soluble
13 | SNASDKGKLSLQDVAELIRARACQRVVVMVGAGISTPSGIPDFRSPGSGLYSNLQQYDLPYPEAIFELPFFFHNPKPFFTLAKELYPGNYKPNVTHYFLRLLHDKGLLLRLYTQNIDGLERVSGIPASKLVEAHGTFASATCTVCQRPFPGEDIRADVMADRVPRCPVCTGVVKPDIVFFGEPLPQRFLLHVVDFPMADLLLILGTSLEVEPFASLTEAVRSSVPRLLINRDLVGPLAWHPRSRDVAQLGDVVHGVESLVELLGWTEEMRDLVQRETGKLDGPDK | soluble
14 | MGSDKIHHHHHHMSEHLTLPTNKPQVTHFSSGPCAKHPGWSVSNLENACLGRSHRSEDGKAKLSEVIERSKQILGLPADYRLGIVPASDTGAVEMALWSLLGQRPLDILAWESFGQEWVKDVVDELKLPDVRLLKAPYGGLPNLDEVDFSHDVVFLWNGTTSGVRVPNGDWIKDDRQGLTICDATSAVFAMDIPWEKIDVLTYSWQKVLGGEAQHGVIVLSPRAVERLQTYEPAWPIPKIFRLSQKGKLIEGIFKGDTINTPSMLCVEDALDALIWAESVGGLPGLISRSEANLAAIAQWVKQSNWADFLAEKPETRSCTSICLKIVDAAFASLSAEDQGKFAKKLAKLLEKQQVAYDIAPYRAAPPGLRIWGGATVETADIEALLPWLDWAYANVKAEFVPVA | not soluble
